T1: vitronectin receptor (M21 melanoma cell attachment assay) (Homo sapiens (Human)), P06756
T1 chain 1: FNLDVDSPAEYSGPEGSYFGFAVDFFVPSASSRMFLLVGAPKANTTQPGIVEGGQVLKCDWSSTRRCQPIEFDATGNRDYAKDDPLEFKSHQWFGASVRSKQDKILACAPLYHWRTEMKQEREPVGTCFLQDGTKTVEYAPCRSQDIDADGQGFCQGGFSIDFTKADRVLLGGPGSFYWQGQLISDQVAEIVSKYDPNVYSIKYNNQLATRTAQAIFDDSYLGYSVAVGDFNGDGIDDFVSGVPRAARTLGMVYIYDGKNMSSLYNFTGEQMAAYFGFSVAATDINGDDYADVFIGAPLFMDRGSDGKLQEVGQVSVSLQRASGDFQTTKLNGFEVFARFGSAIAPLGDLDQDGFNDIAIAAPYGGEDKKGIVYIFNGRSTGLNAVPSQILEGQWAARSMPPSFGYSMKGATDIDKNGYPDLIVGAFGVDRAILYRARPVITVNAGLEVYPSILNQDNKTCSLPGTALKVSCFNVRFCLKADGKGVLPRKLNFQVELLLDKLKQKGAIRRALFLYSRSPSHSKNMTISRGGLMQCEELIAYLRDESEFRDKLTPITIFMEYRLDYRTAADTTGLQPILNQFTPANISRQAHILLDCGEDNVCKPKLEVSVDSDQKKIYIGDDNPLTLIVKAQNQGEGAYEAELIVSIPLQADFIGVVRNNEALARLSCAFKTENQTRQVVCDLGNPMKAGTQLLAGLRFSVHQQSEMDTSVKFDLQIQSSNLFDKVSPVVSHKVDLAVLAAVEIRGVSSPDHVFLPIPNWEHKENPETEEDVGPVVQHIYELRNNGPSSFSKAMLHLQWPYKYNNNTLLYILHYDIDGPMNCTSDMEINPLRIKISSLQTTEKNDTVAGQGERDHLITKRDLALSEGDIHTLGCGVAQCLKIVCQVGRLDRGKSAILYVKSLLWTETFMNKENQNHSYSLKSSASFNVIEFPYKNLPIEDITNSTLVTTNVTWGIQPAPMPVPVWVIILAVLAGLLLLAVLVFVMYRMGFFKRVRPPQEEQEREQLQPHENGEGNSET
T1 chain 2: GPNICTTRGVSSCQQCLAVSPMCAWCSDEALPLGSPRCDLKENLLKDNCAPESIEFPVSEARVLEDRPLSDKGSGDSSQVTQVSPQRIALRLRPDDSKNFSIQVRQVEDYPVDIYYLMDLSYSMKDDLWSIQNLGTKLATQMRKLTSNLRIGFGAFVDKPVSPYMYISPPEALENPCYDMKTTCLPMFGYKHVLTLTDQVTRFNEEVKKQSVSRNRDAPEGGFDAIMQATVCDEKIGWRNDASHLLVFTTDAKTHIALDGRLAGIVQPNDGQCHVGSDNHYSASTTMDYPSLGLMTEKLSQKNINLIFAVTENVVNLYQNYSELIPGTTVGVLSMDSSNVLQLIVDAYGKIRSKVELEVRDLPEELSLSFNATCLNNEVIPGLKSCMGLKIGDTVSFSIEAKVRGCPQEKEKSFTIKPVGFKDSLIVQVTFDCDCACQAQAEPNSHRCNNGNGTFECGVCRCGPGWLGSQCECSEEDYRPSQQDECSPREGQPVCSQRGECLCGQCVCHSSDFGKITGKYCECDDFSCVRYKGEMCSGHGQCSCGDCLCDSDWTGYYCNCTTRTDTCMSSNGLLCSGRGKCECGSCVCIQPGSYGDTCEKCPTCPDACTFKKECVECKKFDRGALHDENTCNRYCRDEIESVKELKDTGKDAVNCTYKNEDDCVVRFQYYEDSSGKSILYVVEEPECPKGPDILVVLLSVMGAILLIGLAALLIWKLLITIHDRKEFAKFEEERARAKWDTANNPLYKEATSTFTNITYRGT

B1: analog #3 (peptide)
peptide: GCGKGDWPCA
modifications: not checked
B2: analog #5 (peptide)
peptide: CGKGDWPC
modifications: not checked
B3: analog #4 (peptide)
peptide: GCKGDWPCA
modifications: not checked

How the values were obtained:
[1] = biological target: T1, vitronectin receptor (M21 melanoma cell …)
[2] = biological target: GP IIb-IIIa on human platelets (human), P08514

Binder	M21 cell attachment to vitronectin [1] [µM]	Appr, IC50 (uM): inhibition of ADP-induced human platelet aggregation [2] [µM]
B1	> 60	–
B2	–	5
B3	–	5

Reference: US5747447
